Assay results taken from the supplement of paper PMC12042874.
± gives the uncertainty stated by the source.

Assay: amyloid nucleation score (Sup35N fusion, yeast selection) (log enrichment); library NNK1; higher = more nucleation; inactive = no reads after selection
Procedure, shortened: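 Peptides of 20 random codons, each fused to Sup35N, were expressed in psi-negative yeast. Cells were induced with 100 μM copper sulfate for 24 hours and grown 7 days at 30°C on medium lacking adenine and uracil, and plasmid inserts before and after selection were Illumina-sequenced. Nucleation scores are DiMSum log enrichments of output over input reads, centred on the mode score of non-aggregating sequences, and sequences under 100 input reads were excluded.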

Substance	amyloid nucleation score
HKIHAVQLLQVRYLNKRLAG	0.96 ± 0.17
HLGAYYTGI	0.984 ± 0.36
HLKRRLKFDSGTSYQLVQKV	0.177 ± 1
HLNNCLTRRNWTRYFSRVAP	0.95 ± 0.58
HLSEFAVGVCEVY	1.27 ± 0.56
HLSVFQLDLTREVANCKSWM	3.17 ± 0.11
HLSWLRINLPGSPHPPMSLP	3.57 ± 0.11
HLWPVVSKGWDGFRCVSQVF	-1.25 ± 2.4
HLYDC	inactive
HMAAYKVSGVKSGSPEW	-0.145 ± 0.59
HMNSVVMPRWPTLNGELGSR	-0.179 ± 0.4
HNELCFMFYSLGNCYGAGVG	5.03 ± 0.095
HNFKCHLKSCKVSNFN	-1.02 ± 2.4
HNFWLCAVSYQDRVMFLSVF	0.497 ± 0.31
HNGHPRTAWVVVQY	0.298 ± 0.28
HPFKLGVFNISGESLSTA	-0.802 ± 2.1
HPGMTSAASVCWFHGRVLTL	0.494 ± 0.51
HPLQMISCNKHIQLANMQFR	0.795 ± 0.37
HQIYVLATETNSPMLRWKLQ	0.879 ± 0.98
HRCGLPASFIHHFVCDRAVG	-0.686 ± 1.4
HRDNH	-0.253 ± 0.35
HRIITCPFTSWNH	0.816 ± 0.54
HRQGYVWYLLR	1.43 ± 0.24
HRRSLRVGLSDIHLLAACAE	-0.897 ± 1.6
HRRSTHGMYPVPYCSSINH	0.687 ± 0.48
HRSKS	-0.087 ± 0.32

Substance	amyloid nucleation score
HSAGVVDALRCYNFYV	-0.102 ± 0.39
HSCVPICNEYSAADRSYFRY	0.343 ± 0.97
HSFIYYWC	7.49 ± 0.051
HSGMRVPSMAYLVL	-0.259 ± 0.7
HSLLVMQDVCPE	0.69 ± 0.56
HSNCVDSRCETARTS	1.47 ± 0.47
HSPCMPLTCSQTWHSLDLPF	-0.304 ± 0.55
HSRYWSNIHSRWLTGRVRWG	-0.28 ± 0.51
HSSKYRRFVSTTVTIVSVSR	4.01 ± 0.09
HSWYEELMVVLNISSHGHLD	0.351 ± 0.52
HSYTRIE	-0.413 ± 0.24
HTEEGKSWFMRGSSVWFRVG	0.341 ± 0.18
HTHSGVYC	-0.468 ± 0.5
HVFVLLPSKFADLLKKPVLL	-0.894 ± 1.7
HVGHCLLLKFQSIWDFWCVC	0.237 ± 0.69
HVKACLVVASYP	0.94 ± 0.5
HVVAALWCARNFWGVLNVCC	-0.09 ± 0.53
HWIMAMFMSPPANTHDEAEI	2.45 ± 0.15
HWSMCRTGFWSLYKMDVTQT	0.833 ± 0.7
HWTMYLVQLDSDSAIFFGHM	2.52 ± 0.15
HWTPC	inactive
HYDSMTAL	0.491 ± 0.62
HYEVYAARVPNHHAKDIFWV	-0.024 ± 0.93
HYIFIRECYCIYLSIAFSQT	0.33 ± 0.36
HYSFFE	-0.806 ± 0.8
HYWDYAISRIR	-1.94 ± 2.4

Substance	amyloid nucleation score
IAFTVWADWYLPKLGLIREL	0.508 ± 0.74
IAHFELMRHNVHLKWVESWL	0.911 ± 0.27
IANCQAGWGCRQA	0.315 ± 0.32
IAVNSYASVDTYTSLLIRWL	0.993 ± 0.36
IAVSFSVVL	5.49 ± 0.056
ICDYPIVMRKYPVS	-1.68 ± 1.4
ICIDCYQGC	-0.721 ± 1.9
ICKDKHAIV	-0.282 ± 0.37
ICNFERILRNMVFAWWYKID	0.621 ± 0.42
ICNQCNNSGTQLYCIKLYMR	6.099 ± 0.045
ICSIITPRPGFPTVLRSMKK	0.846 ± 0.81
ICTEIRRGLHE	1.11 ± 0.71
ICVSSGSVIIIVTYFAKCPA	0.484 ± 0.24
ICWLC	6.912 ± 0.055
ICYTLTMVMAGVEAGGATLV	0.294 ± 0.95
IDCIWGLCNWFHSLVMCVHS	inactive
IDGLNNYTSYNGTR	-0.219 ± 0.62
IDHSNTIFMSQCRRLSVPE	-0.889 ± 1.7
IDNMGT	2.4 ± 0.12
IDWSVHL	inactive
IDWTVDKRSKLMYRGKGSVA	-0.306 ± 0.97
IEIGSSF	0.118 ± 0.6
IELSILSGRRDL	-0.406 ± 0.2
IEQMCTHVNYFGD	-0.548 ± 0.86
IEWRVKLRLLRCQYID	-0.507 ± 0.34
IFFCWTMFRS	1.28 ± 0.21

Substance	amyloid nucleation score
IFGCRLLYCS	0.402 ± 1.4
IFGFVWDPKTNYMTGLFASI	-0.231 ± 0.5
IFHGRNYSFSS	-0.422 ± 0.45
IFMSRWG	2.78 ± 0.14
IFNCVVLFSNTFMGYRFPFH	6.273 ± 0.045
IFNSNLLLTATRGDSVIWPY	3.26 ± 0.14
IFQPFFAYSGKLVWPFKRDP	4.01 ± 0.081
IFSNQLYVERIVLDENKALL	3.62 ± 0.094
IFYLTSVFVFSLLKFMTCER	-1.17 ± 2.4
IFYSLFEDTYGGYVLNTAYL	inactive
IGAHRNRIWIWYCPVVPNAT	3.1 ± 0.2
IGARQLSFLHSIRTREMRVQ	inactive
IGDGSFYGLRQRQEARGKRA	-0.437 ± 0.73
IGFFPQDSYGFGLRTEINGL	0.145 ± 0.69
IGGCLETCCSLGDKLGRRKR	1.07 ± 0.66
IGLAICNLLFSTGWGYQPLW	5.75 ± 0.083
IGLVCCCSSFEFMRWY	2.49 ± 0.47
IGMVSVSC	0.037 ± 1.2
IGNPMWCQWSAL	0.721 ± 0.74
IGRMIRVCYVVCYEVDMTTS	0.725 ± 0.47
IGSFDYGSNLGQIYGHNMLK	-0.685 ± 0.6
IGSLGMCLQCYGAGV	0.147 ± 1.2
IGSMNCRLLVTWKMVWLVPH	-0.187 ± 0.5
IGSVDALKVVDVAMCVPT	2.34 ± 0.54
IGTGCSDILRIWRECVNLRG	1.5 ± 0.56
IGVSVTPLLLKNKRPVTDVM	1.07 ± 0.84

Substance	amyloid nucleation score
IGVVVWRPNLILRKEYLWRV	-0.858 ± 2.1
IGVYSKNAQKGIRRDWCLWN	1.33 ± 0.62
IGWFHHFHHATLHRAISVFL	0.633 ± 0.42
IGWNFAFVSGILVW	inactive
IGYRCIVLS	1.24 ± 0.45
IHNFIVSRDRMTGENGSGCM	-0.944 ± 0.41
IHWFVFYFLKKFCYYRSYAR	0.389 ± 0.4
IIAIPHLTLSWTNLSMGQG	3.76 ± 0.1
IICLVNMDLCKSR	3.9 ± 0.16
IIGSIGYVKVSCDQAVRFQL	5.01 ± 0.076
IIINGVL	0.029 ± 0.62
IILCNRPMSYLRYNGARFLA	0.948 ± 0.36
IILGL	0.006 ± 0.73
IIRKPGLTRTCHTVLTAASE	0.511 ± 0.91
IIRRGSRSFYIFMVTFKRRN	0.996 ± 0.52
IISMLFAFIGQSIIVQVVRC	0.316 ± 0.26
IISVMTIARGNPVCTHIKYG	0.169 ± 0.29
IIVGEFENLYNSAINVK	inactive
IKEFLKACNHHEPMPGNLMR	-0.005 ± 0.54
IKHFGISTR	0.17 ± 0.79
IKISHACATMRQSGGFYVLK	-0.511 ± 0.39
IKLFARGGI	0.39 ± 0.59
IKMDFTFICIRVRGV	0.343 ± 1.4
IKSHNMYYGRRRGVFLGPDR	-0.075 ± 0.44
IKTMISQY	-0.406 ± 0.25
